This note sets out measurements from patent publication US20250003951A1, “METHOD AND COMPOSITION” (Oxford University Innovation Limited, priority 2021, published 2025).

Positions count from the first letter of the chain named.

Holding throughout (conditions): chains Valpha:Vbeta
For experiment [1], the target named is HENMT1, germline variant rs36100901 peptide on (human). Description: IFNγ-catch sort of peptide-cultured, peptide-restimulated patient PBMCs, then 10x V(D)J sequencing; TCR not re-expressed; not present in the IFNγ- control (FIG. 10); clone with two TRB chains, specific pairing not told; T cell clone or line.
Experiment [2] shares this target. Described as above. The source holds these as a separate data set.
Experiment [3] has the same target. The experiment is described as above. The source holds these as a separate data set.
The target in experiment [4] is ACADS, germline variant rs1799958 peptide on (human). Description: IFNγ-catch sort of peptide-cultured, peptide-restimulated patient PBMCs, then 10x V(D)J sequencing; TCR not re-expressed; not present in the IFNγ- control (FIG. 12); clone with two TRA chains, specific pairing not told; T cell clone or line.
The target is the same in experiment [5]. The description is as above. The source holds these as a separate data set.
The target is the same in experiment [6]. Description: IFNγ-catch sort of peptide-cultured, peptide-restimulated patient PBMCs, then 10x V(D)J sequencing; TCR not re-expressed; not present in the IFNγ- control (FIG. 12); T cell clone or line.
For experiment [7] the target is unchanged. The description is as above. This is another data set of the same source.
For experiment [8] the target is unchanged. Nature of the experiment: IFNγ-catch sort of peptide-cultured, peptide-restimulated patient PBMCs, then 10x V(D)J sequencing; TCR not re-expressed; not present in the IFNγ- control (FIG. 12); clone with two TRA chains, specific pairing not told; T cell clone or line. This is another data set of the same source.
Experiment [9] deals with COA6, reference allele at rs10910420 peptide on (human). Nature of the experiment: IFNγ-catch sort of peptide-cultured, peptide-restimulated patient PBMCs, then 10x V(D)J sequencing; TCR not re-expressed; clone 1 was present in the IFNγ- control (FIG. 13); clone with two TRA chains, specific pairing not told; T cell clone or line.
For experiment [10] the target is unchanged. The description is as above. The source holds these as a separate data set.
The target is the same in experiment [11]. Nature of the experiment: IFNγ-catch sort of peptide-cultured, peptide-restimulated patient PBMCs, then 10x V(D)J sequencing; TCR not re-expressed; clone 2 was absent from the IFNγ- control (FIG. 13); T cell clone or line.
The target is the same in experiment [12]. The experiment is described as above. The source holds these as a separate data set.
The target is the same in experiment [13]. Nature of the experiment: IFNγ-catch sort of peptide-cultured, peptide-restimulated patient PBMCs, then 10x V(D)J sequencing; TCR not re-expressed; clone 1 was present in the IFNγ- control (FIG. 13); clone with two TRA chains, specific pairing not told; T cell clone or line. The source holds these as a separate data set.
Experiment [14] has as its target HENMT1, germline variant rs36100901 peptide on (human). Nature of the experiment: IFNγ-catch sort of peptide-cultured, peptide-restimulated patient PBMCs, then 10x V(D)J sequencing; TCR not re-expressed; not present in the IFNγ- control (FIG. 10); clone with two TRB chains, specific pairing not told; T cell clone or line. The source holds these as a separate data set.

The target is the same in experiment [15]. Description: IFNγ-catch sort of peptide-cultured, peptide-restimulated patient PBMCs, then 10x V(D)J sequencing; TCR not re-expressed; not present in the IFNγ- control (FIG. 10); T cell clone or line.
Experiment [16] has the same target. Described as above. The source holds these as a separate data set.
For experiment [17] the target is unchanged. Nature of the experiment: IFNγ-catch sort of peptide-cultured, peptide-restimulated patient PBMCs, then 10x V(D)J sequencing; TCR not re-expressed; not present in the IFNγ- control (FIG. 10); clone with two TRB chains, specific pairing not told; T cell clone or line. This is another data set of the same source.

B1: OX289 Peptides 73/74 clone 3, TRA with first TRB (protein)
chain 1: AQSVTQLDSQVPVFEEAPVELRCNYSSSVSVYLFWYVQYPNQGLQLLLKYLSGSTLVKGINGFEAEFNKSQTSFHLRKPSVHISDTAEYFCAVSGTGANSKLTFGKGITLSVRP
chain 2: GAGVSQSPSNKVTEKGKDVELRCDPISGHTALYWYRQSLGQGLEFLIYFQGNSAPDKSGLPSDRFSAERTGGSVSTLTIQRTQQEDSAVYLCASSDPISGRGDEQFFGPGTRLTVL
Regarding B1, the clone size (percent repertoire) in [1] and in experiment [2] was 8.67% each time.

B2: OX289 Peptides 73/74 clone 3, TRA with second TRB (protein)
chain 1: B1 chain 1
chain 2: GAGVSQSPSNKVTEKGKDVELRCDPISGHTALYWYRQSLGQGLEFLIYFQGNSAPDKSGLPSDRFSAERTGGSVSTLTIQRTQQEDSAVYLCASSFGGGAWNEQFFGPGTRLTVL
On to B2, for which the clone size (percent repertoire) in experiment [2] and in [3] was 8.67% each time.

B3: OX289 Peptides 75/205 clone 1, first TRA with TRB (protein)
chain 1: GNSVTQMEGPVTLSEEAFLTINCTYTATGYPSLFWYVQYPGEGLQLLLKATKADDKGSNKGFEATYRKETTSFHLEKGSVQVSDSAVYFCALRHKAAGNKLTFGGGTRVLVKP
chain 2: GAVVSQHPSWVICKSGTSVKIECRSLDFQATTMFWYRQFPKQSLMLMATSNEGSKATYEQGVEKDKFLINHASLTLSTLTVTSAHPEDSSFYICSASGPEKLFFGSGTQLSVL
In the case of B3, the clone size (percent repertoire) in [4] and in experiment [5] was 42.4% each time.

B4: OX289 Peptides 75/205 clone 3 (protein)
chain 1: B3 chain 1 with H94G, K95R, A96N, A97Q, N99G, T102I, G105Q, R108E, V109L, L110S
chain 2: GAVVSQHPSRVICKSGTSVKIECRSLDFQATTMFWYRQFPKQSLMLMATSNEGSKATYEQGVEKDKFLINHASLTLSTLTVTSAHPEDSSFYICSARLSSGGGYEQFFGPGTRLTVL
Consider B4, for which the clone size (percent repertoire) in experiment [6] and in experiment [7] was 13.9% each time.

B5: OX289 Peptides 75/205 clone 1, second TRA with TRB (protein)
chain 1: QQQVKQSPQSLIVQKGGISIINCAYENTAFDYFPWYQQFPGKGPALLIAIRPDVSEKKEGRFTISFNKSAKQFSLHIMDSQPGDSATYFCAALFDGGSQGNLIFGKGTKLSVKP
chain 2: B3 chain 2
B5: the clone size (percent repertoire) in [4] and in experiment [8] was 42.4% throughout.

B6: OX802 Peptides 321/322 clone 1, first TRA with TRB (protein)
chain 1: GQSLEQPSEVTAVEGAIVQINCTYQTSGFYGLSWYQQHDGGAPTFLSYNALDGLEETGRFSSFLSRSDSYGYLLLQELQMKDSASYFCAVLKKGYALNFGKGTSLLVTP
chain 2: EAGVVQSPRYKIIEKKQPVAFWCNPISGHNTLYWYLQNLGQGPELLIRYENEEAVDDSQLPKDRFSAERLKGVDSTLKIQPAELGDSAVYLCASSLEAGDSYEQYFGPGTRLTVT
Take B6: the clone size (percent repertoire) in experiment [9] and in experiment [10] was 47.4% in each case.

B7: OX802 Peptides 321/322 clone 2 (protein)
chain 1: KDQVFQPSTVASSEGAVVEIFCNHSVSNAYNFFWYLHFPGCAPRLLVKGSKPSQQGRYNMTYERFSSSLLILQVREADAAVYYCAVTGGYNKLIFGAGTRLAVHP
chain 2: B6 chain 2
As for B7, the clone size (percent repertoire) in [11] and in [12] was 20% throughout.

B8: OX802 Peptides 321/322 clone 1, second TRA with TRB (protein)
chain 1: B7 chain 1 with T87A
chain 2: B6 chain 2
For B8, the clone size (percent repertoire) in [13] and in [10] was 47.4% each time.

B9: OX289 Peptides 73/74 clone 2, TRA with second TRB (protein)
chain 1: ELKVEQNPLFLSMQEGKNYTIYCNYSTTSDRLYWYRQDPGKSLESLFVLLSNGAVKQEGRLMASLDTKARLSTLHITAAVHDLSATYFCAVEETSGSRLTFGEGTQLTVNP
chain 2: EAQVTQNPRYLITVTGKKLTVTCSQNMNHEYMSWYRQDPGLGLRQIYYSMNVEVTDKGDVPEGYKVSRKEKRNFPLILESPSPNQTSLYFCASSERQGITEAFFGQGTRLTVV
For B9, the clone size (percent repertoire) in experiment [2] and in experiment [14] was 25.6% throughout.

B10: OX289 Peptides 73/74 clone 1 (protein)
chain 1: GEDVEQSLFLSVREGDSSVINCTYTDSSSTYLYWYKQEPGAGLQLLTYIFSNMDMKQDQRLTVLLNKKDKHLSLRIADTQTGDSAIYFCAESPSDGQKLLFARGTMLKVDL
chain 2: EAQVTQNPRYLITVTGKKLTVTCSQNMNHEYMSWYRQDPGLGLRQIYYSMNVEVTDKGDVPEGYKVSRKEKRNFPLILESPSPNQTSLYFCASSLRQGISPEQFFGPGTRLTVL
As to B10, the clone size (percent repertoire) in experiment [15] and in experiment [16] was 32.3% each time.

B11: OX289 Peptides 73/74 clone 2, TRA with first TRB (protein)
chain 1: B9 chain 1
chain 2: B10 chain 2
Regarding B11, the clone size (percent repertoire) in [2] and in experiment [17] was 25.6% throughout.
